B1: Ras-related protein Rap-1b (Homo sapiens), P61224 (parent)
chain: MREYKLVVLGSGGVGKSALTVQFVQGIFVEKYDPTIEDSYRKQVEVDAQQCMLEILDTAGTEQFTAMRDLYMKNGQGFALVYSITAQSTFNDLQDLREQILRVKDTDDVPMILVGNKCDLEDERVVGKEQGQNLARQWNNCAFLESSAKSKINVNEIFYDLVRQINRKTPVPGKARKKSSCQLL

Variants of: B1
Conditions: with rpgp1_human RAP1GAP

| effect of a mutation on the interaction | Variant |
| --- | --- |
| disrupting interaction | F64A |

Variants of: B1
Conditions: with rpgp1_human RAP1GAP
Remark: another data set of the same source

| effect of a mutation on the interaction | Variant |
| --- | --- |
| disrupting interaction | Q63E |

Source: IntAct's records for PubMed 18309292
